In US20180030144A1 (INNATE PHARMA, published 2018):
Numbering of substitutions follows the chain as printed. In names and notes the source's numbering stands.

T1: human CD73 mutant 21 (human, UniProt P21589 27-549)
T1 construct: Transfected in HEK293T cells
T1 chain: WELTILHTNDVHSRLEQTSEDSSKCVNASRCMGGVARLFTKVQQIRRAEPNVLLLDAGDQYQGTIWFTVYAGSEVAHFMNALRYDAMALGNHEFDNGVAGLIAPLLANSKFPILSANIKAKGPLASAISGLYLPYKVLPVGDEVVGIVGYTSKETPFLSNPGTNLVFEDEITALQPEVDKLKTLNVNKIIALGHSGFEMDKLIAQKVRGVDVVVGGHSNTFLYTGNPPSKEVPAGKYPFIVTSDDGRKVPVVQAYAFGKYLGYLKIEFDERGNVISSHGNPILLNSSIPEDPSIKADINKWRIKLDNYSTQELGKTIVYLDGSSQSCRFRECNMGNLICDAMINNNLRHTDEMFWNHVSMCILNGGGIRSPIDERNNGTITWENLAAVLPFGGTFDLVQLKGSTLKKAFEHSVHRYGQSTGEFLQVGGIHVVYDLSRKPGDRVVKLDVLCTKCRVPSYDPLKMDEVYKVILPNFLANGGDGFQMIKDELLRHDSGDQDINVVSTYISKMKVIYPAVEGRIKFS

T2: human CD73 mutant 17 (human, UniProt P21589 27-549)
T2 construct: Transfected in HEK293T cells
T2 chain: T1 chain with A71K, A99E, K110A, A127Q

T3: human CD73 mutant 19 (human, UniProt P21589 27-549)
T3 construct: Transfected in HEK293T cells
T3 chain: T1 chain with A71K, A99E, K110A, S126A, A127Q, S129A, L131S, L133S, K136A

T4: human CD73 mutant 16 (human, UniProt P21589 27-549)
T4 construct: Transfected in HEK293T cells
T4 chain: T1 chain with A71K, A99E, K110A, A127Q, L131S, L133S, K136A

T5: human CD73 mutant 22 (human, UniProt P21589 27-549)
T5 construct: Transfected in HEK293T cells
T5 chain: T1 chain with A127Q, K304A

B1: antibody 11E1 (antibody, human IgG1, V domains shown)
VH: EIQLQQSGPELVKPGASVKVSCKASGYAFTSYNMYWVKQSHGKSLEWIGYIDPYNGGTSYNQKFKGKATLTVDKSSSTAYMHLNSLTSEDSAVYYCARGYGNYKAWFAYWGQGTLVTVSA
VL: DAVMTQTPKFLLVSAGDRVTITCKASQSVTNDVAWYQQKPGQSPKLLIYYASNRYTGVPDRFTGSGYGTDFTFTISTVQAEDLAVYFCQQDYSSLTFGAGTKLELK
notes: Produced as chimeric human IgG1 with heavy chain N297Q (Kabat EU numbering); also called 1E11
B2: antibody 3C12 (antibody, human IgG1, V domains shown)
VH: B1 VH with E1Q, T30A, Y35N, E46D, T58S, Q62L, K63T, S77T
VL: DVVMTQTPKFLLVSAGDRVTITCKASQSVSNDVAWYQQKPGQSPKLLIYYASTRYTGVPDRFTGSGYGTDFTFTISTVQAEDLAVYFCQQDYSSLTFGAGTKLELKR
notes: Produced as chimeric human IgG1 with heavy chain N297Q (Kabat EU numbering); RTVAAP)
B3: antibody 6E1 (antibody, human IgG1, V domains shown)
VH: B1 VH with I2F, S44R, T58S, S85N, G101N
VL: B1 VL with D1S, A2I, V78M
notes: Produced as chimeric human IgG1 with heavy chain N297Q (Kabat EU numbering)

Target: T1, human CD73 mutant 21
Assay: flow cytometry, HEK293T transfectants

Row | binding result | Binder
1 | no binding | B1
2 | no binding | B2
3 | no binding | B3

Target: T2, human CD73 mutant 17
Assay: flow cytometry, HEK293T transfectants

Row | binding result | Binder
4 | no binding | B1
5 | no binding | B2
6 | no binding | B3

Target: T3, human CD73 mutant 19
Assay: flow cytometry, HEK293T transfectants

Row | binding result | Binder
7 | no binding | B1
8 | no binding | B2
9 | no binding | B3

Target: T4, human CD73 mutant 16
Assay: flow cytometry, HEK293T transfectants

Row | binding result | Binder
10 | no binding | B1
11 | no binding | B2
12 | no binding | B3

Target: T5, human CD73 mutant 22
Assay: flow cytometry, HEK293T transfectants

Row | binding result | Binder
13 | no binding | B1
14 | no binding | B2
15 | no binding | B3
